Experimental data from the RNAGym collection of RNA variant scans (doi:10.7554/elife.80360).

B1: CPEB3 Ribozyme (parent)
chain: GGGGGCCACAGCAGAAGCGUUCACGUCGCGGCCCCUGUCAGAUUCUGGUGAAUCUGCGAAUUCUGCUGU

Variants of: B1
Assay: self-cleavage, relative activity (ratio to wild type); higher = more cleavage; co-transcriptional

| Variant | self-cleavage |
| --- | --- |
| GGGGGCCACAGCAGAAGCGUUCACGUCGCGGCCCCUUUCAGAUUCUGGUAAAUCUGCGAAUUCUGCUGU [G37U G50A] | 0.284 |
| GGGGGCCACAGCAGAAGCGUUCACGUCGCGGCCCCUGACAGAUUCUGGUGAAUCUCCGAAUUCUGCUGU [U38A G56C] | 0.466 |
| GGGGGCCACAGCAGAAGCGUUCACGUCGCGGCCCCUGACAGAUUCUGGUGAAUCUUCGAAUUCUGCUGU [U38A G56U] | 0.875 |
| GGGGGCCACAGCAGAAGCGUUCACGUCGCGGCCCCUUUCAGAUUCUGGUGAAUCUGCGAAAUCUGCUGU [G37U U61A] | 0.263 |
| GGGGGCCACAGCAGAAGCGUUCACGUCGCGGCCCCUGACAGAUUCUGGUGAAUCUGCGAAUUCUGCUGC [U38A U69C] | 1.03 |
| GGGGGCCACAGCAGAAGCGUUCACGUCGCGGCCCCUGACAGAUUCUGGUGAAUCUGCGAAUUCUGCUGG [U38A U69G] | 0.971 |
| GGGGGCCACAGCAGAAGCGUUCACGUCGCGGCCCCUGCCAGAUUCUGGUGUAUCUGCGAAUUCUGCUGU [U38C A51U] | 0.935 |
| GGGGGCCACAGCAGAAGCGUUCACGUCGCGGCCCCUUUCAGAUUCUGGUGUAUCUGCGAAUUCUGCUGU [G37U A51U] | 0.252 |
| GGGGGCCACAGCAGAAGCGUUCACGUCGCGGCCCCUGACAGAUUCUGGUGAAUCUGCGAAUUCUGCCGU [U38A U67C] | 0.943 |
| GGGGGCCACAGCAGAAGCGUUCACGUCGCGGCCCCUGACAGAUUCUGGUGAAUCUGCCAAUUCUGCUGU [U38A G58C] | 0.921 |
| GGGGGCCACAGCAGAAGCGUUCACGUCGCGGCCCCUUUCAGAUUCUGGUGAAACUGCGAAUUCUGCUGU [G37U U53A] | 0.195 |
| GGGGGCCACAGCAGAAGCGUUCACGUCGCGGCCCCUGACAGAUUCUGGUGGAUCUGCGAAUUCUGCUGU [U38A A51G] | 0.89 |
| GGGGGCCACAGCAGAAGCGUUCACGUCGCGGCCCCUGACAGAUUCUGGUGCAUCUGCGAAUUCUGCUGU [U38A A51C] | 0.908 |
| GGGGGCCACAGCAGAAGCGUUCACGUCGCGGCCCCUUUCAGAUUCUGGUGAAUCUGCGAAUUCUGUUGU [G37U C66U] | 0.245 |
| GGGGGCCACAGCAGAAGCGUUCACGUCGCGGCCCCUGACAGAUUCUGGUGACUCUGCGAAUUCUGCUGU [U38A A52C] | 0.898 |
| GGGGGCCACAGCAGAAGCGUUCACGUCGCGGCCCCUGACAGAUUCUGGUAAAUCUGCGAAUUCUGCUGU [U38A G50A] | 0.952 |
| GGGGGCCACAGCAGAAGCGUUCACGUCGCGGCCCCUUUCAGAUUCUGGUGAAUCUGCGAAUUCUGCUGG [G37U U69G] | 0.354 |
| GGGGGCCACAGCAGAAGCGUUCACGUCGCGGCCCCUUUCAGAUUCUGGUGAAUCUGCGAAUUCUGCUGA [G37U U69A] | 0.358 |
| GGGGGCCACAGCAGAAGCGUUCACGUCGCGGCCCCUGACAGAUUCUGGUGAAUCUGCGAUUUCUGCUGU [U38A A60U] | 0.453 |
| GGGGGCCACAGCAGAAGCGUUCACGUCGCGGCCCCUGCCAGAUUCUGGUGAAUCUGCGAAUUCUGCUGU [U38C] | 0.961 |

| Variant | self-cleavage |
| --- | --- |
| GGGGGCCACAGCAGAAGCGUUCACGUCGCGGCCCCUGACAGAUUCUGGUGAAUCUGCGAAUUCUGCUGU [U38A] | 0.929 |
| GGGGGCCACAGCAGAAGCGUUCACGUCGCGGCCCCUUUCAGAUCCUGGUGAAUCUGCGAAUUCUGCUGU [G37U U44C] | 0.188 |
| GGGGGCCACAGCAGAAGCGUUCACGUCGCGGCCCCUUUCAUAUUCUGGUGAAUCUGCGAAUUCUGCUGU [G37U G41U] | 0.201 |
| GGGGGCCACAGCAGAAGCGUUCACGUCGCGGCCCCUGAAAGAUUCUGGUGAAUCUGCGAAUUCUGCUGU [U38A C39A] | 0.748 |
| GGGGGCCACAGCAGAAGCGUUCACGUCGCGGCCCCUGAGAGAUUCUGGUGAAUCUGCGAAUUCUGCUGU [U38A C39G] | 0.994 |
| GGGGGCCACAGCAGAAGCGUUCACGUCGCGGCCCCUUUCAGAUUCUGGUGAAUCUGCGAGUUCUGCUGU [G37U A60G] | 0.208 |
| GGGGGCCACAGCAGAAGCGUUCACGUCGCGGCCCCUUUCAGAUUCUGGUGAAUCUGCGACUUCUGCUGU [G37U A60C] | 0.224 |
| GGGGGCCACAGCAGAAGCGUUCACGUCGCGGCCCCUUUCAGAUUCUGGUGAAUCUGCGAUUUCUGCUGU [G37U A60U] | 0.195 |
| GGGGGCCACAGCAGAAGCGUUCACGUCGCGGCCCCUGCCAGAUUCUGGUGAAUCUGCGAAUUAUGCUGU [U38C C63A] | 0.71 |
| GGGGGCCACAGCAGAAGCGUUCACGUCGCGGCCCCUGACAGAUUCUGGUGAAUCUGCGAAUUCUACUGU [U38A G65A] | 0.733 |
| GGGGGCCACAGCAGAAGCGUUCACGUCGCGGCCCCUUUCAGAUUCUGCUGAAUCUGCGAAUUCUGCUGU [G37U G48C] | 0.326 |
| GGGGGCCACAGCAGAAGCGUUCACGUCGCGGCCCCUGACCGAUUCUGGUGAAUCUGCGAAUUCUGCUGU [U38A A40C] | 0.703 |
| GGGGGCCACAGCAGAAGCGUUCACGUCGCGGCCCCUGACGGAUUCUGGUGAAUCUGCGAAUUCUGCUGU [U38A A40G] | 0.808 |
| GGGGGCCACAGCAGAAGCGUUCACGUCGCGGCCCCUGCCAGAUUCUGGUGAAUAUGCGAAUUCUGCUGU [U38C C54A] | 0.61 |
| GGGGGCCACAGCAGAAGCGUUCACGUCGCGGCCCCUUUCAGAUUCUGGUGAAUCUGCGAAUUCUCCUGU [G37U G65C] | 0.228 |
| GGGGGCCACAGCAGAAGCGUUCACGUCGCGGCCCCUUUCAGAUUCUGGUGAAUCUGCGCAUUCUGCUGU [G37U A59C] | 0.218 |
| GGGGGCCACAGCAGAAGCGUUCACGUCGCGGCCCCUUUCAGAUUCUGGUGAAUCUGCGGAUUCUGCUGU [G37U A59G] | 0.412 |
| GGGGGCCACAGCAGAAGCGUUCACGUCGCGGCCCCUUUCAGAUUCUGGUGAAUCUGCAAAUUCUGCUGU [G37U G58A] | 0.17 |
| GGGGGCCACAGCAGAAGCGUUCACGUCGCGGCCCCUUUCAGAUUCUGGUGAAUCUGCGAAUUCGGCUGU [G37U U64G] | 0.227 |
